From the supplement of paper PMC10567573
± gives the standard deviation.

Experiment: protein stability index of a GFP-peptide fusion (GPS, HEK-293T) (PSI 1-6); higher = more stable
Conditions: c terminus: a fixed tail appended
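Also: 24-mer peptide tiles fused after GFP, lentivirally expressed, FACS-sorted into six equal bins by GFP/DsRed ratio, decoded by Illumina sequencing, PSI is the read-weighted mean bin number.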

Sequence | protein stability index (treatment: DMSO) | protein stability index (treatment: MLN4924 1 uM, 8 h)
YAGNLHESGVHGALLALDENFDHN [PPFIA4] | 3.26 ± 0.51 | 3.7 ± 0.73
CRFNQDPEAVDEDRSTEPDRLQVF [ATE1] | 4.54 ± 0.18 | 4.55 ± 0.2
YSSQLSQVQSLITNVESQLAEIRS [KRT33B] | 3.49 ± 0.1 | 3.66 ± 0.2
WSRLEEFDVFSPKQDLVPGSPDDS [DLC1] | 4.45 ± 0.27 | 4.87 ± 0.38
PSVRKKAGSFSRRLIKRFSFKSKP [C2CD2L] | 3.34 ± 0.56 | 3.35 ± 0.31
ESFILDQDDLENPMLETASKLLLS [ANKRD17] | 3.99 ± 0.22 | 4.1 ± 0.38
DGTGRMPTLKKCEDVARPTQRLWD [GALNT9] | 4.01 ± 0.31 | 4.13 ± 0.19
QQIQGLISSIEAQLSELRSEMECQ [KRT13] | 3.6 ± 0.14 | 3.44 ± 0.5
RSEFTLMAKRIGKDLSNTFAKLEK [STX5] | 2.51 ± 0.33 | 2.31 ± 0.33
FLWGPRALIETSYVKVLHHMVKIS [MAGEA6] | 2.14 ± 0.89 | 2.59 ± 0.65
VRNQQSLAVSNMGARSKGQCPEPP [PTPN9] | 4.3 ± 0.11 | 4.21 ± 0.39
RDLAARWKKLVLVDRNTRPGPQDP [ELOA2] | 3.38 ± 0.19 | 3.49 ± 0.23
KYVSKELAKEIRVKAEPFIKWLKE [EIF5] | 3.08 ± 0.4 | 3.07 ± 0.46
TAIKSIEFARKGSCFLINTADRII [RBBP5] | 2.6 ± 0.22 | 2.75 ± 0.78
DIDVQLSSELTDSLRTLKPEGNIL [NOP53] | 4.1 ± 0.29 | 4.06 ± 0.36
VRHEGTRTLWSGLPATLVMTVPAT [SLC25A39] | 2.33 ± 0.18 | 2.27 ± 0.13
RVQVLKNEVRRGSPVLLGWVEQAY [TIAF1] | 2.37 ± 0.18 | 2.21 ± 0.37
TSASLLNAGLSHTEYQIVTDPGDV [SLC2A12] | 4.42 ± 0.16 | 4.76 ± 0.15
VCQKLLLDAMNYHLMPFRQHCRQS [KLHL14] | 3 ± 0.47 | 2.99 ± 0.62
IEDSTGLNRPGPAPLSSRKHVLYV [TCF25] | 2.27 ± 0.45 | 2.35 ± 0.31
GLKLIQIQDNGTGIRKEDLDIVCE [MLH1] | 3.56 ± 0.37 | 3.87 ± 0.75
PELSYRVCVGSDVTSIHKYMVRRY [MYORG] | 2.31 ± 0.14 | 2.27 ± 0.24

Sequence | protein stability index (treatment: DMSO) | protein stability index (treatment: MLN4924 1 uM, 8 h)
LFCEVSVVQDSVNISGHTNTNTLK [SPOPL] | 2.76 ± 0.4 | 2.84 ± 0.67
EIRDWRGPQLEGEKDWGLEGYVWR [ZSWIM9] | 3 ± 0.56 | 3.29 ± 0.57
DLDRMGVMTLPSDLRKHRRKLLSP [PPFIA4] | 3.72 ± 0.25 | 3.73 ± 0.12
SQPAVELVSGSQSALGPPPAASNS [CLINT1] | 5.04 ± 0.31 | 5.21 ± 0.33
SARIGQNCSIGPNVSLGPGVVVED [GMPPB] | 4.49 ± 0.33 | 4.58 ± 0.23
LQNFLLHGTKNVTNSSSLRLPRQN [WSB1] | 2.89 ± 0.16 | 3 ± 0.23
ACLLQLAEIQEACCEFLKRQLDPS [KLHL20] | 2.32 ± 0.58 | 2.16 ± 0.053
PVLRPMDLMVEATPRRVFANAHTY [PPP2R2B] | 2.68 ± 0.17 | 2.82 ± 0.075
LCPSRAELDRWLYHLEKQTALLGG [PLEKHN1] | 2.53 ± 0.21 | 2.62 ± 0.22
QMTNIGVYVSNMTDKLVTPGKYFS [IQUB] | 2.31 ± 0.5 | 2.49 ± 0.28
SLFSYGLRESIASYLSLTSEDNTS [SLA] | 2.49 ± 0.19 | 2.61 ± 0.22
NVEAQLSEIRCDLERQNQEYQVLL [KRT36] | 3.58 ± 0.29 | 3.53 ± 0.21
PCKTRDDEPVCGRPLGIRAGPNGT [APMAP] | 3.9 ± 0.36 | 4.14 ± 0.093
IERCIFPERIYQGSSGSYFVKDPQ [PI4K2A] | 3.25 ± 0.22 | 3.2 ± 0.35
TRKQAAKKVAPLMAKAIRDYKGRF [ELOA2] | 3.25 ± 0.37 | 3.39 ± 0.36
IYLLRRQIRTVIQYQTVRYDILPL [CTDNEP1] | 2.94 ± 0.34 | 2.56 ± 0.51
NILPNTQKVTCFYQPAPYFAAEAR [TENT5D] | 2.49 ± 0.32 | 2.59 ± 0.23
VEKQADTLNVIELNVQKTVDYTGQ [STX11] | 4.6 ± 0.21 | 4.58 ± 0.15
RVMKVEDREGPSSSKLVTKKAPQP [HDAC6] | 4.93 ± 0.26 | 5.14 ± 0.077
TASKAIIEKEYQPHVIVSTTGPNP [ADD1] | 4.47 ± 0.21 | 4.65 ± 0.16
VKGLFKSENCPKVISCEFAHNSNW [LARP4] | 2.17 ± 0.24 | 2.4 ± 0.24
EKKLTVRQDLEDRYAEHVAATQAL [C22orf31] | 4.55 ± 0.12 | 4.53 ± 0.21
